The values below are quoted from earlier work in article PMC3361719.

In general, Kd refers to the constant that tells how readily two partners part at equilibrium.

The target of the data set is p67phox SH3 (Homo sapiens) (UniProt P19878).
UniProt P19878, sequence (P19878 457-516): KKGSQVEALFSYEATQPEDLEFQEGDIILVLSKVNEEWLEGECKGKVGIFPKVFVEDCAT

Consider “p47phox PRR and 368-390 (from UniProt P14598)”, for which the Kd was 20 nM.
